Target: T1, human CCX CKR with N-terminal Flag epitope, stably expressed on HEK293 cells (human, UniProt Q9NPB9 1-350)
T1 construct: also called HEK293-CCX CKR cells
T1 sequence: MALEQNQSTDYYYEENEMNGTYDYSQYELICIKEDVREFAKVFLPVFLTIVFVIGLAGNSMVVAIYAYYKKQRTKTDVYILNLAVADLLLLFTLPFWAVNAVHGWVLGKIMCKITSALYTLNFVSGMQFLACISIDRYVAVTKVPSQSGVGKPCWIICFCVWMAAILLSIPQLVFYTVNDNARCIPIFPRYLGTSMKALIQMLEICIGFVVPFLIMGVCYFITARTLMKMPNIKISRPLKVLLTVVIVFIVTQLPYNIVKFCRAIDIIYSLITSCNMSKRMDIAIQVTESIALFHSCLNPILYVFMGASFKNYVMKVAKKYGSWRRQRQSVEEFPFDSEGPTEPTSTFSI
Assay: radioligand binding competition on CCX CKR stable transfectants (similar experiments)

B1: murine CTACK (ligand, UniProt Q9Z1X0 26-120, looked up)
chain: LPLPSSTSCCTQLYRQPLPSRLLRRIVHMELQEADGDCHLQAVVLHLARRSVCVHPQNRSLARWLERQGKRLQGTVPSLNLVLQKKMYSHPQQQN
notes: also called mCTACK; CCL27
In the case of B1, the Kd is reported as ~9 nM.
